Publication PMC9054839, “Mechanism of integrin activation by talin and its cooperation with kindlin” (Nature Communications, 2022)
No end group written: not given here.

Columns and labels:
Settings in all cases: both partners purified
[1] = biological target: T1, constitutively activated full-length talin mutant tlnM3 (M319A, T1767L, E1770K) (mouse, UniProt P26039 1-2541, M319A | T1767L | E1770K); experiment: SPR; tlnM3 amine-coupled to CM5, paxiFL (0–500 nM) flowed over; 50 mM sodium phosphate pH 6.8, 150 mM NaCl, 25 °C; 1:1 model
T1 construct: talin (talin-1), mouse, full length 1-2541, in pET28T; also called active talin; talinFL TM; source: E. coli BL21 (DE3), purified (nickel column, Superose-6 gel filtration)

[2] = biological target: T1, constitutively activated full-length …; experiment: SPR; GST-integrin beta3CT amine-coupled to CM5, talinH or tlnM3 (0–125 nM) flowed over; 50 mM sodium phosphate pH 6.8, 150 mM NaCl, 0.05% Tween 20, 0.03% BSA, 25 °C
[3] = biological target: T1, constitutively activated full-length …; experiment: pull-down; GST-paxillin (full length or fragments) on glutathione-Sepharose 4B beads, talin or talin fragments as prey; 25 mM Tris-HCl pH 7.5, 150 mM NaCl, 0.5 mM TCEP, 0.01 or 0.1% NP40, 4 °C; western blot or Coomassie
paxillin 1–160 = biological target: T2, paxillin 1–160 (human, UniProt P49023-3 1-160); experiment: SPR; paxillin 1–160 amine-coupled to CM5, talin subdomains (0–12 μM) flowed over; 50 mM sodium phosphate pH 6.8, 150 mM NaCl, 25 °C; talin-R1–R4 fitted by a two-state model
T2 construct: paxillin-γ, human, N-terminal 1-160 containing LD1 and LD2, in pGST-1; also called paxillin-γ 1–160; paxillin N-terminal 1–160; source: E. coli BL21 (DE3), purified (GST column, gel filtration)
T2 sequence (P49023 1-160): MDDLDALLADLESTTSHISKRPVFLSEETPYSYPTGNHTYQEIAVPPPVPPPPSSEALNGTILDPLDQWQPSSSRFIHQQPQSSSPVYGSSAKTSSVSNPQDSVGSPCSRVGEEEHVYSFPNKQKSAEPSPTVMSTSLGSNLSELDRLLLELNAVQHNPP

T1 sequence (P26039 whole entry M319A/T1767L/E1770K): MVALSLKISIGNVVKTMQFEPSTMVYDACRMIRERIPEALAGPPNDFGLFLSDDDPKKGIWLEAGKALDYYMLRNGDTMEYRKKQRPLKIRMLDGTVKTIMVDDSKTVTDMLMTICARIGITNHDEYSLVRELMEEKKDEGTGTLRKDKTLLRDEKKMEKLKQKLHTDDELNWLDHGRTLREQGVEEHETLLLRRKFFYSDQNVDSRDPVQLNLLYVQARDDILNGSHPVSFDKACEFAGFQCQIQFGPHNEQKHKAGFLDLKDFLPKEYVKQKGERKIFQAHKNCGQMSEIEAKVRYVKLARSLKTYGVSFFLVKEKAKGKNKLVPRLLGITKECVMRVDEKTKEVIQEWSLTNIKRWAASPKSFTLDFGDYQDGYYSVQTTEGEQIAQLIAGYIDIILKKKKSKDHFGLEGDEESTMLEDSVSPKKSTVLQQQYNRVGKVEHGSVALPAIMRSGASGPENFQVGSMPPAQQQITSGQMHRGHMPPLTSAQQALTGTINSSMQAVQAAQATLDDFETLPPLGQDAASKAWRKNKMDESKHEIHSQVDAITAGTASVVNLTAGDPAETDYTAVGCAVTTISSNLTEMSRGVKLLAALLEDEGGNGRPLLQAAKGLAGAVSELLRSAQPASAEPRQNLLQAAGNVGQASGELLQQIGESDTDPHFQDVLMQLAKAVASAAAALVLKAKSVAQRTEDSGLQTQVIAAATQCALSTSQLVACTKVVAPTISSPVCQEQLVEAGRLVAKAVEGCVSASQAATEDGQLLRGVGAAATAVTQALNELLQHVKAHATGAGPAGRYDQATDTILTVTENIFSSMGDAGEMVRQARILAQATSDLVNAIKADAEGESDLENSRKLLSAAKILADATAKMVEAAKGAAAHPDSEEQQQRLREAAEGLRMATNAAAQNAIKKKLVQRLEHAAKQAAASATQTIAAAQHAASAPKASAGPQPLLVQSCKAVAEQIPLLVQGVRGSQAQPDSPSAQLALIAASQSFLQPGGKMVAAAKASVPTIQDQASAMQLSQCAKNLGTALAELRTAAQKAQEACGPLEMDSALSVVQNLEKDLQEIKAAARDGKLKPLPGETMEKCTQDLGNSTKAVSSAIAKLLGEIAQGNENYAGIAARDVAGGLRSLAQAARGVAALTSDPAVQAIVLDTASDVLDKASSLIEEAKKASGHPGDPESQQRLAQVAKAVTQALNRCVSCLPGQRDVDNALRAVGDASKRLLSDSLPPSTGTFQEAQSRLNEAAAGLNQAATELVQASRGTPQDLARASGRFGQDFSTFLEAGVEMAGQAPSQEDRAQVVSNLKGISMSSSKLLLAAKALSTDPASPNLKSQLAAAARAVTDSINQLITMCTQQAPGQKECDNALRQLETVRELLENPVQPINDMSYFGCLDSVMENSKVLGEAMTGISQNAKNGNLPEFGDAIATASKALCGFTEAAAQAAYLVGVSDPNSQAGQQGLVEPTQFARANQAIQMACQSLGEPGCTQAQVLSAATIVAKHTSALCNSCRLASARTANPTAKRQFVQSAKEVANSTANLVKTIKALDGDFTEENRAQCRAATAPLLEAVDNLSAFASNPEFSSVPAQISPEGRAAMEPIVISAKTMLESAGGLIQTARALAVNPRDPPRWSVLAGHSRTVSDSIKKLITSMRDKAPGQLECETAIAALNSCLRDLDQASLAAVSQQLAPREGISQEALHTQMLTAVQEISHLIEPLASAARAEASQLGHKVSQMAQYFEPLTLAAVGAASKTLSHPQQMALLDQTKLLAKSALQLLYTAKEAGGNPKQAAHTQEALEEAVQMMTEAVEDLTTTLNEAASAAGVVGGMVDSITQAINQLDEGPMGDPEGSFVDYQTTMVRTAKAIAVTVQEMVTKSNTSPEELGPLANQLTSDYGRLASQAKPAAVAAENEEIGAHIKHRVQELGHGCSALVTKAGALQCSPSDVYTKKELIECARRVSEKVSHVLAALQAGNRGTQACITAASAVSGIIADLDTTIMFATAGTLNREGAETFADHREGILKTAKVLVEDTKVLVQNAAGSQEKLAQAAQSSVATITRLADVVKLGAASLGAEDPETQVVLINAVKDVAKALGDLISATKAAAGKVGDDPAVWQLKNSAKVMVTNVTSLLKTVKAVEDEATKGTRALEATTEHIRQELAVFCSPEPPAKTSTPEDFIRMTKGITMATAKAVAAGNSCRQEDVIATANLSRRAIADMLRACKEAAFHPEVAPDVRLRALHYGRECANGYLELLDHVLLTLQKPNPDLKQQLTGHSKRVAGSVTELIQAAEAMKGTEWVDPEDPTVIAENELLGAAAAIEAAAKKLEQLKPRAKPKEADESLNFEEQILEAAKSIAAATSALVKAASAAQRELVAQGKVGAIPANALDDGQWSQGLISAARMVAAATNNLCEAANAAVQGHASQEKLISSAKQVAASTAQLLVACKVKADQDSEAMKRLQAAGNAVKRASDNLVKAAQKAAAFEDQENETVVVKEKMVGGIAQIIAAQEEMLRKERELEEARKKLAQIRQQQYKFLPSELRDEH

B1: full-length paxillin (natural protein)
chain: not shown
notes: also called paxiFL; paxillin-γ; source: E. coli BL21 (DE3), purified (GST column, gel filtration)
Kd [1]: ~0.0331 µM | stoichiometry N [1]: 1

B2: GST-integrin beta3 cytoplasmic tail (domain or fragment, UniProt P05106 742-788, looked up)
chain: {GST}-KLLITIHDRKEFAKFEEERARAKWDTANNPLYKEATSTFTNITYRGT
notes: integrin β3 cytoplasmic tail; also called integrin-β3 CT; GST-integrin beta3CT; source: E. coli BL21 (DE3), purified
Kd [2]: ~0.0145 µM

B3: GST-paxillin 1–160 (domain or fragment)
chain: not shown
notes: paxillin-γ, human, N-terminal 1-160 containing LD1 and LD2, in pGST-1; also called paxi1–160; source: E. coli BL21 (DE3), purified (GST column, gel filtration)
binding result [3]: binds

B4: talin-R2 (domain or fragment, mouse, UniProt P26039 655-782, looked up)
chain: IGESDTDPHFQDVLMQLAKAVASAAAALVLKAKSVAQRTEDSGLQTQVIAAATQCALSTSQLVACTKVVAPTISSPVCQEQLVEAGRLVAKAVEGCVSASQAATEDGQLLRGVGAAATAVTQALNELL
notes: talin (talin-1), mouse, rod subdomain R2; source: E. coli BL21 (DE3), purified
Kd (paxillin 1–160): ~2.21 µM

B5: talin-F3 (domain or fragment)
chain: GVSFFLVKEKMKGKNKLVPRLLGITKECVMRVDEKTKEVIQEWSLTNIKRWAASPKSFTLDFGDYQDGYYSVQTTEGEQIAQLIAGYIDIILKKKKS
Kd (paxillin 1–160): ~3.51 µM

B6: talin-R8 (domain or fragment, mouse, UniProt P26039 1461-1580, looked up)
chain: LVEPTQFARANQAIQMACQSLGEPGCTQAQVLSAATIVAKHTSALCNSCRLASARTANPTAKRQFVQSAKEVANSTANLVKTIKALDGDFTEENRAQCRAATAPLLEAVDNLSAFASNPE
notes: talin (talin-1), mouse, rod subdomain R8; source: E. coli BL21 (DE3), purified
Kd (paxillin 1–160): ~5.37 µM
